Experimental data published in the supplement of paper PMC9732359.
± gives the uncertainty stated by the source.

Assay: protein stability index of a GFP-peptide fusion (yeast GPS) (PSI 1-4); higher = more stable; sorted into four equal gates, so the index is relative within each strain
How it was run: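 The protein stability index of a peptide was calculated by multiplying its read frequency in each gate by that gate's number and adding the products. The peptides were tiled 17-residue stretches of yeast proteins, fused downstream of GFP on a Cherry-expressing plasmid and carried in yeast as a pooled library. Mid-log cultures in leucine-free medium were sorted into four equal gates by GFP/Cherry ratio, and each gate's plasmids were PCR-amplified and Illumina-sequenced.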

| Sequence | protein stability index (doa10∆) | protein stability index (pdr5∆) | protein stability index (san1∆) | protein stability index (ubr1∆) |
| --- | --- | --- | --- | --- |
| EYLFKPQLISDKFSPED [ARP7] | 2.38 ± 0.053 | 2.46 ± 0.042 | 2.32 ± 0.056 | 2.17 ± 0.041 |
| LIELLTQMDGFDQSTNV [RPT3] | 2.33 ± 0.088 | 2.19 ± 0.075 | 1.56 ± 0.15 | 2.05 ± 0.08 |
| VSKEQFLKDADVECIKA [YJL039C/NUP192] | 1.45 ± 0.043 | 1.61 ± 0.059 | 2.17 ± 0.079 | 1.89 ± 0.042 |
| NNIIAEGIEKMGVRTFS [FAS2] | 2.7 ± 0.22 |  | 2.23 ± 0.12 | 2.69 ± 0.12 |
| SPQKFETNLQTFLPPLL [ECM29] | 3.01 ± 0.071 | 2.95 ± 0.06 | 3.2 ± 0.04 | 2.92 ± 0.049 |
| KLKHMVLDKMHARARGP [RET1] | 2.69 ± 0.094 | 2.84 ± 0.084 | 2.47 ± 0.067 | 2.65 ± 0.06 |
| SKVGSADTGRDDTKETV [RPN11] | 3.14 ± 0.13 | 3.36 ± 0.089 | 3.59 ± 0.068 | 3.04 ± 0.12 |
| VNKVPQNVAGDKTAVKL [SWP82] | 2.71 ± 0.16 | 3.04 ± 0.11 | 2.8 ± 0.096 | 3.07 ± 0.071 |
| SPAVKKLLQLAGVEDVY [RPS2] | 1.58 ± 0.062 | 1.76 ± 0.14 |  | 2.05 ± 0.2 |
| DKKHFNNKNKRVTGAGG [RPC53] | 3.15 ± 0.24 | 2.53 ± 0.17 | 3.16 ± 0.27 | 3.31 ± 0.075 |
| QFISSRQFEVKQLQLAM [POP1] | 2.24 ± 0.051 | 2.45 ± 0.051 | 2.1 ± 0.067 | 1.74 ± 0.037 |
| DDRVDKKFVSQIQKNVD [POP3] | 3.22 ± 0.073 | 3.44 ± 0.12 | 3.29 ± 0.064 | 3.44 ± 0.051 |
| VDRLKIGGSLARIALRH [RPS25A] | 2.66 ± 0.13 | 2.1 ± 0.07 | 2.01 ± 0.073 | 1.8 ± 0.096 |
| GISDMCRLFFTELASKD [YCS4] | 2.37 ± 0.085 | 2.4 ± 0.087 | 2.18 ± 0.1 | 2.61 ± 0.078 |
| RVARRNAARKAEASGEA [RPS9A] | 3.32 ± 0.13 | 3.44 ± 0.17 |  | 3 ± 0.098 |
| LADDLITKMLASDESLL [RPN2] | 1.94 ± 0.11 | 2.29 ± 0.14 | 1.86 ± 0.14 |  |
| LNQIATLKIHLKKFLQE [IRR1] | 2.17 ± 0.18 | 1.91 ± 0.22 |  |  |
| EPENNTVIEGVKEESQP [SWI3] | 3.21 ± 0.095 | 3.13 ± 0.092 | 3.08 ± 0.059 | 2.99 ± 0.081 |
| SMNATMRNFSKQNQDSK [YDL088C/ASM4] | 2.86 ± 0.14 | 2.99 ± 0.24 | 1.94 ± 0.27 | 2.84 ± 0.24 |
| KSFYSTATGAASKSGKL [CYT1] | 2.74 ± 0.091 | 2.62 ± 0.1 | 2.87 ± 0.079 | 2.75 ± 0.059 |
| SGHFSTDSRTGQSTILV [CDC53] | 2.83 ± 0.047 | 2.8 ± 0.052 | 3.05 ± 0.038 | 3.11 ± 0.042 |
| PSILEDSLENNEGVPSP [FAS1] | 3.29 ± 0.23 | 2.79 ± 0.22 | 3.22 ± 0.17 | 3.14 ± 0.2 |
| MVHREFLKLANGGKFSK [RGR1] | 3.22 ± 0.08 | 2.74 ± 0.074 | 3.14 ± 0.12 | 2.91 ± 0.07 |
| PWCVKPEYLAMYGLTME [ITC1] | 2.27 ± 0.065 | 3.03 ± 0.071 | 2.79 ± 0.081 | 2.07 ± 0.073 |
| AYPGKLICPQYGTENKD [CSL4] | 1.89 ± 0.073 | 1.93 ± 0.068 | 1.72 ± 0.15 | 1.9 ± 0.078 |
| DYCRILSDIETAVNGID [YGL172W/NUP49] | 3.28 ± 0.16 | 3.15 ± 0.13 | 2.75 ± 0.17 | 2.71 ± 0.1 |

| Sequence | protein stability index (doa10∆) | protein stability index (pdr5∆) | protein stability index (san1∆) | protein stability index (ubr1∆) |
| --- | --- | --- | --- | --- |
| STIEKDMKEYDSDKGSK [SMC2] | 3.25 ± 0.1 | 3.44 ± 0.071 | 3.37 ± 0.056 | 3.44 ± 0.075 |
| GCLIKNLPRTKAKSVVN [RMP1] | 2 ± 0.11 | 2.52 ± 0.2 | 1.92 ± 0.17 | 2.13 ± 0.12 |
| IEKSRLFSEKTIRYLMQ [SNF6] | 1.82 ± 0.069 | 2.29 ± 0.048 | 2.28 ± 0.084 | 1.86 ± 0.055 |
| IPMSKTIKDLVGGKSTV [FAS2] | 2.96 ± 0.11 | 2.8 ± 0.089 | 2.85 ± 0.072 | 3.04 ± 0.06 |
| RDVRDQAAGGLSIRLTN [RPN8] | 2.89 ± 0.087 | 2.85 ± 0.095 | 2.89 ± 0.097 | 2.6 ± 0.071 |
| PSTGFKFSLPFEQKGSQ [YLR335W/NUP2] | 2.99 ± 0.11 | 2.94 ± 0.088 | 3.07 ± 0.087 | 2.96 ± 0.096 |
| IRDNKLVSEKIINSTAL [RPC82] | 3.24 ± 0.2 | 3.24 ± 0.12 | 2.99 ± 0.19 | 3.14 ± 0.11 |
| DNSPSEDFMDIPKPRTA [SNF2] | 2.57 ± 0.16 | 2.83 ± 0.11 |  | 2.77 ± 0.19 |
| PSYTHVLISKLSCEKIT [RRI1] | 2.18 ± 0.04 | 1.99 ± 0.043 | 2.12 ± 0.047 | 1.98 ± 0.035 |
| KPNNTANTGGGLFGANS [YGL172W/NUP49] | 3.16 ± 0.14 | 3.28 ± 0.089 | 3.03 ± 0.072 | 3.08 ± 0.089 |
| NFHNSKKRMNSNQERCH [RRI1] | 2.51 ± 0.062 | 2.51 ± 0.057 | 2.83 ± 0.071 | 2.99 ± 0.07 |
| GPAAAKPMAFSNTTTHV [MTR3] | 3.06 ± 0.08 | 3.28 ± 0.052 | 3.39 ± 0.05 | 3.27 ± 0.036 |
| DMENMADEQKRSTDVWY [ARP7] | 2.35 ± 0.05 | 2.31 ± 0.04 | 2.62 ± 0.053 | 2.55 ± 0.044 |
| TNDDSIKNLTVQLSPSN [RGR1] | 2.8 ± 0.074 | 2.79 ± 0.059 | 2.56 ± 0.056 | 2.58 ± 0.05 |
| KEVASLPNKSTISKTVS [FAS2] | 3.09 ± 0.12 | 3.05 ± 0.12 | 3 ± 0.08 | 3.21 ± 0.14 |
| RIKITANNNMNDELVEL [GRR1] | 2.35 ± 0.051 | 2.41 ± 0.053 | 2.33 ± 0.062 | 2.71 ± 0.041 |
| IQIMANIDQEGSKQADR [PGD1] | 3.2 ± 0.052 | 3.11 ± 0.064 | 3.08 ± 0.054 | 3.08 ± 0.04 |
| AVSTIASISLAIGYPTL [RPP0] | 1.92 ± 0.055 | 2.12 ± 0.056 | 1.53 ± 0.1 | 2.15 ± 0.049 |
| TRYMFQRDFRKHGAVHL [RPL21A] | 2.42 ± 0.062 | 2.27 ± 0.069 | 2.33 ± 0.084 | 2.44 ± 0.092 |
| TESITHDSSNGLFQVLH [NUT1] | 3.12 ± 0.073 | 3.22 ± 0.061 | 2.99 ± 0.058 | 3.17 ± 0.041 |
| HGLKQLRDSLADKIVDE [NUT2] | 3.11 ± 0.083 | 2.13 ± 0.077 | 1.52 ± 0.071 | 2.3 ± 0.055 |
| LPVKHPELFESLGIAQP [RPT6] | 2.65 ± 0.074 | 3.01 ± 0.039 | 2.55 ± 0.077 | 2.73 ± 0.054 |
| ARGTIEIVSDVKVVDAG [RPP0] | 1.61 ± 0.1 | 2.21 ± 0.07 | 1.96 ± 0.15 | 1.77 ± 0.095 |
| HDYWNKIMQSISNKDVI [SRB4] | 1.85 ± 0.27 | 1.62 ± 0.23 | 1.33 ± 0.19 |  |
| LRIVTHLAICLDIINPG [YDL116W/NUP84] | 1.61 ± 0.08 | 1.38 ± 0.083 | 1.57 ± 0.095 | 1.82 ± 0.067 |
